Assay results reported in the Human Domainome abundance scans (Beltran et al. 2025).

B1: Activity-dependent neuroprotector homeobox protein, residues 770 to 810; numbered along this chain, Q9H2P0 (parent)
chain: FLTKYFNKQPYPTRREIEKLAASLWLWKSDIASHFSNKRKK
B2: Homeobox protein cut-like 1, residues 548 to 629; numbered along this chain, P39880 (parent)
chain: GEEMDTAEIARQVKEQLIKHNIGQRIFGHYVLGLSQGSVSEILARPKPWNKLTVRGKEPFHKMKQFLSDEQNILALRSIQGR

Variants of: B1
Test: abundance fitness (aPCA) (normalised: wild type 0, dead -1); higher = more abundant; growth selection in yeast, the domain comes from the species named
Conditions: Homo sapiens

Abundance fitness: each site, then its substitutions
F35: G -0.112; K -0.211; P -0.231; C -0.347; A -0.119; S -0.156; D -0.157; Y -0.235; T -0.229; I -0.208; Q -0.238; L -0.023; N -0.205; H -0.237; E -0.068; M 0.004; V -0.063
A32: S -0.196; W 0.113; P -0.383; Q -0.169; R 0.029; C 0.074; T -0.086
S29: H 0.077; C -0.206; G -0.014; I 0.031; P 0.229; K 0.208; Q 0.173; M -0.124; E -0.294; R -0.088; L -0.145; V -0.302; F -0.43
H34: S -0.02; M 0.043; G -0.043; C 0.069; V 0.117; D -0.388; Q -0.032; N -0.107; T -0.128; I 0.068; A 0.006; P -0.01; K 0.022; R -0.085; E -0.275; Y -0.151
S33: G -0.023; Q -0.033; Y -0.381; I -0.149; F -0.244; V -0.276; K 0.044; N -0.284; M -0.061; L -0.154; D -0.267; A 0.014; R 0.032; P -0.01; W -0.147; T -0.076; C -0.058; H 0.018
D30: L -0.376; M -0.054; K 0.071; T -0.182; P 0.056; G -0.025; H -0.124; A -0.247; Y -0.082; Q 0; V -0.317; F -0.257; E -0.124; W -0.01; R -0.026
W25: V 0.133; D -0.159; H 0.071; Q 0.068; E 0.13; L 0.097; F -0.168; M -0.009; A 0.064; Y -0.233; N -0.021; S 0.134; R 0.254; T 0.141; C -0.14; K 0.361; P -0.176
L26: S 0.033; F 0.069; P 0.343; M 0.115; E 0.127; I -0.134; Y -0.151; K 0.341; A -0.116; T 0.022; W 0.044; H 0.253; Q 0.122; V 0.037; R 0.198; D -0.004; C -0.014; G 0.101
K28: F 0.435; T 0.18; R -0.188; A 0.333; E -0.463; L 0.55; C 0.317; D -0.514; P 0.257; W 0.13; G 0.048; V 0.508; Q -0.184; S 0.028; H -0.421; Y -0.443; M 0.438; I 0.445; N -0.244
K40: I -0.27; C -0.097; A -0.013; M -0.069; T 0.009; V -0.461; S -0.259; P -0.28; W -0.137; D -0.253; E -0.278; G -0.06; F -0.098; L -0.352; R -0.156; N -0.425
R39: I -0.035; M 0.134; L 0.031; S -0.085; E -0.249; N -0.012; Q -0.195; A -0.076; P -0.232; V -0.185; C -0.189; W 0.009; G -0.195; F -0.157
N37: C -0.002; L 0.061; F -0.044; E -0.142; V -0.091; R -0.081; H -0.072; Q -0.141; T -0.077; P -0.107; A -0.093; M 0.013; W 0.023; K 0.131; I 0.028; G 0.022; S -0.019
K41: T -0.128; C -0.261; I -0.277; R -0.092; L -0.4; W 0.259; E -0.092; Q 0.153; A -0.319; G -0.135; M 0.082; P -0.188; D -0.015; N -0.15; H -0.214; V -0.309; Y -0.378
I31: Y -0.189; P -0.098; Q -0.116; D 0.022; V 0.16; M 0.056; R -0.205; E -0.23; W -0.129; L -0.043; F -0.197; G -0.129; N -0.153; C -0.075; S -0.154; T -0.061; A 0.109; K -0.276
L24: W -0.121; G -0.228; F -0.197; Q -0.783; V 0.123; S -0.483; P -0.289; I 0.051; K -0.321; E -0.82; T -0.212; R -0.339
K38: Q -0.216; P -0.206; F -0.269; W -0.242; T -0.229; H -0.112; Y -0.433; C -0.193; I -0.182; G -0.09; E -0.327; R -0.115; S -0.183; A -0.167; L -0.197; N -0.298; V -0.119
W27: L -0.04; E -0.74; C -0.188; M -0.031; V -0.061; T -0.152; R 0.025; Q -0.492; K 0.067; Y -0.227; P -0.398; D -0.22; N -0.295; H -0.137; G 0.037; A -0.084
S36: F -0.055; K 0.051; M -0.037; H 0.01; I -0.091; A -0.049; W -0.177; R 0.087; P -0.047; C -0.006; D -0.159; V -0.262; L -0.316; G 0.083; T 0.059; Y -0.37; Q -0.085; E -0.395

Variants of: B2
Test: as above
Conditions: Homo sapiens

Abundance fitness, by site and new letter:
G1: F -0.104; H -0.289; W -0.172; V -0.01; L -0.03; Y 0.075; P -0.044; D 0.029; T -0.035; N -0.012; A -0.064; C -0.026; K -0.035; M 0.038; S -0.004; R -0.041; I 0.049; E -0.036; Q -0.051
E3: G -0.155; A -0.064; D 0.001; Q -0.089; N -0.119; H -0.027; K -0.064; C -0.142; L -0.107; M -0.101; I -0.081; F 0.1; P -0.137
E2: F -0.107; C -0.137; P -0.478; K -0.116; L -0.193; T -0.117; Y -0.175; R -0.188; Q -0.126; H -0.256; A -0.121; S -0.087; W -0.202; G -0.145; V -0.17; D -0.154; I -0.261
